Measurements reported in patent publication US20140087995A1 (published 2014).
Numbered stars: 1 amine (or outer) side, 2 acyl side, 3 side chain; on linkers, the order of the positions; unused ones are H or OH. Bridge positions count the residues as written; N and C are the ends. Side chains are listed from the residue outwards. Ends that are not written are not given here. * marks the point of attachment. C20 diacid = O=C(O)CCCCCCCCCCCCCCCCCCC(=O)*; γGlu = O=C(O)[C@H](CCC(=O)[*:2])N[*:1]; AEEA = NCCOCCOCC(=O)O

T1: human calcitonin receptor (human, UniProt P30988 25-474)
T1 construct: whole, on cells; also called hCTR; hCT
T1 sequence (looked up): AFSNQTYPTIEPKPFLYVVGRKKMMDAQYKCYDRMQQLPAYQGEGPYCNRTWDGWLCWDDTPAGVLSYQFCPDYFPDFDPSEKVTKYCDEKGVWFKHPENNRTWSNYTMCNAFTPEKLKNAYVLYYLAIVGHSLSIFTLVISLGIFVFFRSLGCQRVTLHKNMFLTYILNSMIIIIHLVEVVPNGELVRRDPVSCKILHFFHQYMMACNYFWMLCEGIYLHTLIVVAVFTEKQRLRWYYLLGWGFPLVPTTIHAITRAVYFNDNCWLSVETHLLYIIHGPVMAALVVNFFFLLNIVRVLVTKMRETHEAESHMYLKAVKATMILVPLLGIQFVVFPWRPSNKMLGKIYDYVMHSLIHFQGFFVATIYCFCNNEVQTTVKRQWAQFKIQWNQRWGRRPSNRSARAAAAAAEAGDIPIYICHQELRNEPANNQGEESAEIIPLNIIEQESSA

T2: rat calcitonin receptor (rat, UniProt P32214 25-516)
T2 construct: whole, on cells; also called rCTR; rat calcitonin (a) receptor
T2 sequence (looked up): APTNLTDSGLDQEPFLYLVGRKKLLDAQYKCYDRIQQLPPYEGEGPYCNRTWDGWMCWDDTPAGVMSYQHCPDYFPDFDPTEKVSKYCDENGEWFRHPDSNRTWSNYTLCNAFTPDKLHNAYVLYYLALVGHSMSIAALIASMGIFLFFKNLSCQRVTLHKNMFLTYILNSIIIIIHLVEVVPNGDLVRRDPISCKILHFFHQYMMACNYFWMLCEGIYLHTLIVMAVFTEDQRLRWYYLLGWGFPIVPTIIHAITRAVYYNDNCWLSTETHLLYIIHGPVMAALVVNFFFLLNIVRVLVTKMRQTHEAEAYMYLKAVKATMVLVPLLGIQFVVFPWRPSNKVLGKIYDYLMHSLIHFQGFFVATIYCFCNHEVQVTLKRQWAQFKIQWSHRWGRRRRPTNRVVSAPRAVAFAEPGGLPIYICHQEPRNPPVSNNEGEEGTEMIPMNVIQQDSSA

T3: rat amylin receptor (rat calcitonin receptor + rat RAMP 3) (rat, UniProt P32214 25-516; Q9JJ73 23-147)
T3 construct: whole, on cells; also called rAmylin-R; rat amylin 3(a) receptor
T3 sequence (looked up) 1: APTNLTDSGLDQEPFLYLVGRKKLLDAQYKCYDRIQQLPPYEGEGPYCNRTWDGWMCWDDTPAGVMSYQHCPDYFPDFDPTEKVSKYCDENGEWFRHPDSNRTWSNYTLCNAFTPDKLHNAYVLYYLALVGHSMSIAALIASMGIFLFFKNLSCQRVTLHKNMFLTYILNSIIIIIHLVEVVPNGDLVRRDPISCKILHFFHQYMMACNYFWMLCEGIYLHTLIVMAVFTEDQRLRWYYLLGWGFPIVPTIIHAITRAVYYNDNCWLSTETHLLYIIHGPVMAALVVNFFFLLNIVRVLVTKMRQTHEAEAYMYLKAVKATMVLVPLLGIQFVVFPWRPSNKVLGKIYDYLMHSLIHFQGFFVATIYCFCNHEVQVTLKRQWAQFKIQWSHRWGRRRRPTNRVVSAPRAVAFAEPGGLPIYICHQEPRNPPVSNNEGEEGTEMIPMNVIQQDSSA
T3 sequence (looked up) 2: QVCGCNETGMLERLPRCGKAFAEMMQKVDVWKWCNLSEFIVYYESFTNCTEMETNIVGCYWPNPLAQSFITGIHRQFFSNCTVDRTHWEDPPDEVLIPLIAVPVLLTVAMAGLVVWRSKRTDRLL


Assays:
[1] = target: T1, human calcitonin receptor; experiment: ratio of binding IC50s: human calcitonin receptor over human amylin receptor (reference)
In short: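 Competition binding by SPA uses membrane preparations (35 ng/μL final) in pH 7.4 Hepes buffer with 1 mM CaCl2 and 5 mM MgCl₂. Incubation lasts 120 min at 25° C, and IC₅₀ comes from one-site fitting.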

rat calcitonin receptor [2] = target: T2, rat calcitonin receptor; experiment: SPA competition with 125I-calcitonin, membranes of BHK cells with rat calcitonin receptor (Assay VIII)
rat calcitonin receptor [3] = target: T2, rat calcitonin receptor; experiment: ratio of binding IC50s: rat calcitonin receptor over rat amylin receptor (reference)
[4] = target: T3, rat amylin receptor (rat calcitonin …); experiment: SPA competition with 125I-rat amylin, membranes of BHK cells with rat calcitonin receptor + rat RAMP3 (Assay VI)

Ratio hCT/hAmylin binding [1]	IC50 (rat calcitonin receptor [2]) [nM]	Ratio rCT/rAmylin binding (rat calcitonin receptor [3])	IC50 [4] [nM]	Binder
133	24.4	135	0.181	K([AEEA-γGlu-C20 diacid])CNTATCATQRLANFLRHSSPNFGAIPSSTPVGSHTY-NH2 (disulfide 2-7; N-terminus assumed; SMILES CC[C@H](C)[C@H](NC(=O)[C@H](C)NC(=O)CNC(=O)[C@H](Cc1ccccc1)NC(=O)[C@H](CC(N)=O)NC(=O)[C@@H]1CCCN1C(=O)[C@H](CO)NC(=O)[C@H](CO)NC(=O)[C@H](Cc1c[nH]cn1)NC(=O)[C@H](CCCNC(=N)N)NC(=O)[C@H](CC(C)C)NC(=O)[C@H](Cc1ccccc1)NC(=O)[C@H](CC(N)=O)NC(=O)[C@H](C)NC(=O)[C@H](CC(C)C)NC(=O)[C@H](CCCNC(=N)N)NC(=O)[C@H](CCC(N)=O)NC(=O)[C@@H](NC(=O)[C@H](C)NC(=O)[C@@H]1CSSC[C@H](NC(=O)[C@@H](N)CCCCNC(=O)COCCOCCNC(=O)CC[C@H](NC(=O)CCCCCCCCCCCCCCCCCCC(=O)O)C(=O)O)C(=O)N[C@@H](CC(N)=O)C(=O)N[C@@H]([C@@H](C)O)C(=O)N[C@@H](C)C(=O)N[C@@H]([C@@H](C)O)C(=O)N1)[C@@H](C)O)C(=O)N1CCC[C@H]1C(=O)N[C@@H](CO)C(=O)N[C@@H](CO)C(=O)N[C@H](C(=O)N1CCC[C@H]1C(=O)N[C@H](C(=O)NCC(=O)N[C@@H](CO)C(=O)N[C@@H](Cc1c[nH]cn1)C(=O)N[C@H](C(=O)N[C@@H](Cc1ccc(O)cc1)C(N)=O)[C@@H](C)O)C(C)C)[C@@H](C)O, synthetic analogue of human amylin; also called compound 57)
109	10.3	76.6	0.135	K([AEEA-γGlu-C20 diacid])CNTATCATQRLANFLRHSSPNFGAIPSSTNVGPHTY-NH2 (disulfide 2-7; N-terminus assumed; SMILES CC[C@H](C)[C@H](NC(=O)[C@H](C)NC(=O)CNC(=O)[C@H](Cc1ccccc1)NC(=O)[C@H](CC(N)=O)NC(=O)[C@@H]1CCCN1C(=O)[C@H](CO)NC(=O)[C@H](CO)NC(=O)[C@H](Cc1c[nH]cn1)NC(=O)[C@H](CCCNC(=N)N)NC(=O)[C@H](CC(C)C)NC(=O)[C@H](Cc1ccccc1)NC(=O)[C@H](CC(N)=O)NC(=O)[C@H](C)NC(=O)[C@H](CC(C)C)NC(=O)[C@H](CCCNC(=N)N)NC(=O)[C@H](CCC(N)=O)NC(=O)[C@@H](NC(=O)[C@H](C)NC(=O)[C@@H]1CSSC[C@H](NC(=O)[C@@H](N)CCCCNC(=O)COCCOCCNC(=O)CC[C@H](NC(=O)CCCCCCCCCCCCCCCCCCC(=O)O)C(=O)O)C(=O)N[C@@H](CC(N)=O)C(=O)N[C@@H]([C@@H](C)O)C(=O)N[C@@H](C)C(=O)N[C@@H]([C@@H](C)O)C(=O)N1)[C@@H](C)O)C(=O)N1CCC[C@H]1C(=O)N[C@@H](CO)C(=O)N[C@@H](CO)C(=O)N[C@H](C(=O)N[C@@H](CC(N)=O)C(=O)N[C@H](C(=O)NCC(=O)N1CCC[C@H]1C(=O)N[C@@H](Cc1c[nH]cn1)C(=O)N[C@H](C(=O)N[C@@H](Cc1ccc(O)cc1)C(N)=O)[C@@H](C)O)C(C)C)[C@@H](C)O, synthetic analogue of human amylin; also called compound 58)
32	44.8	162	0.276	K([AEEA-γGlu-C20 diacid])CNTATCATQRLAGFLRHSSPNFGAIPSSTPVGSNTY-NH2 (disulfide 2-7; N-terminus assumed; SMILES CC[C@H](C)[C@H](NC(=O)[C@H](C)NC(=O)CNC(=O)[C@H](Cc1ccccc1)NC(=O)[C@H](CC(N)=O)NC(=O)[C@@H]1CCCN1C(=O)[C@H](CO)NC(=O)[C@H](CO)NC(=O)[C@H](Cc1c[nH]cn1)NC(=O)[C@H](CCCNC(=N)N)NC(=O)[C@H](CC(C)C)NC(=O)[C@H](Cc1ccccc1)NC(=O)CNC(=O)[C@H](C)NC(=O)[C@H](CC(C)C)NC(=O)[C@H](CCCNC(=N)N)NC(=O)[C@H](CCC(N)=O)NC(=O)[C@@H](NC(=O)[C@H](C)NC(=O)[C@@H]1CSSC[C@H](NC(=O)[C@@H](N)CCCCNC(=O)COCCOCCNC(=O)CC[C@H](NC(=O)CCCCCCCCCCCCCCCCCCC(=O)O)C(=O)O)C(=O)N[C@@H](CC(N)=O)C(=O)N[C@@H]([C@@H](C)O)C(=O)N[C@@H](C)C(=O)N[C@@H]([C@@H](C)O)C(=O)N1)[C@@H](C)O)C(=O)N1CCC[C@H]1C(=O)N[C@@H](CO)C(=O)N[C@@H](CO)C(=O)N[C@H](C(=O)N1CCC[C@H]1C(=O)N[C@H](C(=O)NCC(=O)N[C@@H](CO)C(=O)N[C@@H](CC(N)=O)C(=O)N[C@H](C(=O)N[C@@H](Cc1ccc(O)cc1)C(N)=O)[C@@H](C)O)C(C)C)[C@@H](C)O, synthetic analogue of human amylin; also called compound 71)
120	477	94.3	5.05	K([AEEA-γGlu-C20 diacid])CNTATCATQRLAHFLRHSSPNFGAIPSSTNVGRNTY-NH2 (disulfide 2-7; N-terminus assumed; SMILES CC[C@H](C)[C@H](NC(=O)[C@H](C)NC(=O)CNC(=O)[C@H](Cc1ccccc1)NC(=O)[C@H](CC(N)=O)NC(=O)[C@@H]1CCCN1C(=O)[C@H](CO)NC(=O)[C@H](CO)NC(=O)[C@H](Cc1c[nH]cn1)NC(=O)[C@H](CCCNC(=N)N)NC(=O)[C@H](CC(C)C)NC(=O)[C@H](Cc1ccccc1)NC(=O)[C@H](Cc1c[nH]cn1)NC(=O)[C@H](C)NC(=O)[C@H](CC(C)C)NC(=O)[C@H](CCCNC(=N)N)NC(=O)[C@H](CCC(N)=O)NC(=O)[C@@H](NC(=O)[C@H](C)NC(=O)[C@@H]1CSSC[C@H](NC(=O)[C@@H](N)CCCCNC(=O)COCCOCCNC(=O)CC[C@H](NC(=O)CCCCCCCCCCCCCCCCCCC(=O)O)C(=O)O)C(=O)N[C@@H](CC(N)=O)C(=O)N[C@@H]([C@@H](C)O)C(=O)N[C@@H](C)C(=O)N[C@@H]([C@@H](C)O)C(=O)N1)[C@@H](C)O)C(=O)N1CCC[C@H]1C(=O)N[C@@H](CO)C(=O)N[C@@H](CO)C(=O)N[C@H](C(=O)N[C@@H](CC(N)=O)C(=O)N[C@H](C(=O)NCC(=O)N[C@@H](CCCNC(=N)N)C(=O)N[C@@H](CC(N)=O)C(=O)N[C@H](C(=O)N[C@@H](Cc1ccc(O)cc1)C(N)=O)[C@@H](C)O)C(C)C)[C@@H](C)O, synthetic analogue of human amylin; also called compound 84)
36	5.63	81.7	0.069	K([AEEA-γGlu-C20 diacid])CNTATCATQRLANFLRHSSPNFGAIPSSTNVGPNTY-NH2 (disulfide 2-7; N-terminus assumed; SMILES CC[C@H](C)[C@H](NC(=O)[C@H](C)NC(=O)CNC(=O)[C@H](Cc1ccccc1)NC(=O)[C@H](CC(N)=O)NC(=O)[C@@H]1CCCN1C(=O)[C@H](CO)NC(=O)[C@H](CO)NC(=O)[C@H](Cc1c[nH]cn1)NC(=O)[C@H](CCCNC(=N)N)NC(=O)[C@H](CC(C)C)NC(=O)[C@H](Cc1ccccc1)NC(=O)[C@H](CC(N)=O)NC(=O)[C@H](C)NC(=O)[C@H](CC(C)C)NC(=O)[C@H](CCCNC(=N)N)NC(=O)[C@H](CCC(N)=O)NC(=O)[C@@H](NC(=O)[C@H](C)NC(=O)[C@@H]1CSSC[C@H](NC(=O)[C@@H](N)CCCCNC(=O)COCCOCCNC(=O)CC[C@H](NC(=O)CCCCCCCCCCCCCCCCCCC(=O)O)C(=O)O)C(=O)N[C@@H](CC(N)=O)C(=O)N[C@@H]([C@@H](C)O)C(=O)N[C@@H](C)C(=O)N[C@@H]([C@@H](C)O)C(=O)N1)[C@@H](C)O)C(=O)N1CCC[C@H]1C(=O)N[C@@H](CO)C(=O)N[C@@H](CO)C(=O)N[C@H](C(=O)N[C@@H](CC(N)=O)C(=O)N[C@H](C(=O)NCC(=O)N1CCC[C@H]1C(=O)N[C@@H](CC(N)=O)C(=O)N[C@H](C(=O)N[C@@H](Cc1ccc(O)cc1)C(N)=O)[C@@H](C)O)C(C)C)[C@@H](C)O, synthetic analogue of human amylin; also called compound 50)
